From patent publication US20210403546A1 (LUDWIG INSTITUTE FOR CANCER RESEARCH, published 2021)
Numbering of substitutions follows the chain as printed. Names and notes keep the numbering of the source.

B1: LCR13A1_VH_GLv1_03_LCR13A1_VK_GLv3 (LCR13A1-2B) IgG4[S228P] (antibody, V domains shown)
VH: QVQLVQSGSVLAKPGASVKVSCKASGYTFTNYWMHWVRQAPGQGLEWIGTIYPGNSDTNYNQKFKDRAKLTAVTSTSTVYMELSSLRSEDTAVYYCTREDSRSLYYNGWDYFDYWGQGTLVTVSS
VL: DIVMTQSPDSLAVSLGERATINCKSSESVDNYGISFLNWFQQKPGKAPKLLIYAASNQGSGVPDRFSGSGSGTDFTLTISSLQAEDVAVYFCQQSKEVPRTFGGGTKLEIKR
notes: VK + CK*01; also called Ab 2B
B2: LCR13A1_VH_GLv1_03_LCR13A1_VK_GLv1_05 (LCR13A1-2F) IgG4[S228P] (antibody, V domains shown)
VH: B1 VH
VL: DIVMTQSPDSLAVSLGERATISCRASESVDNYGISFLNWFQQKPGQPPKLLIYAASNQGSGVPSRFSGSGSGTDFTLNIHPLEAEDAATYYCQQSKEVPRTFGGGTKVEIKR
notes: VK + CK*01; also called Ab 2F; hIgG4 13A1-2F
B3: LCR13A1_VH_GLv1_03_LCR13A1_VK_GLv1_03 (LCR13A1-2D) IgG4(S228P) (antibody, V domains shown)
VH: B1 VH
VL: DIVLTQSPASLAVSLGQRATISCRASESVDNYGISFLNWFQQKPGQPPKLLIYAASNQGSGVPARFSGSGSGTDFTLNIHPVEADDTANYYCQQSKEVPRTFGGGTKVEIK
notes: Human IgG4 (IGHG4*01 with S228P) and human CK*01; also called Ab 2D
B4: LCR13A1_VH_GLv1_03_LCR13A1_VK_GLv1_04 (LCR13A1-2E) IgG4(S228P) (antibody, V domains shown)
VH: B1 VH
VL: DIVLTQSPASLAVSLGQRATISCRASESVDNYGISFLNWFQQKPGQPPKLLIYAASNQGSGVPSRFSGSGSGTDFTLNIHPLEAEDAAAYYCQQSKEVPRTFGGGTKVEIK
notes: Human IgG4 (IGHG4*01 with S228P) and human CK*01; also called Ab 2E
B5: LCR13A1_VH_GLv3_LCR13A1_VK_GLv3 (LCR13A1-2A) IgG4(S228P) (antibody, V domains shown)
VH: QVQLVQSGSELKKPGASVKVSCKTSGYTFTNYWMHWVRQAPGQGLEWIGTIYPGNSDTNYNQKFQGRVTITRDTSASTAYMELSSLRSEDTAVYFCTREDSRSLYYNGWDYFDYWGQGTTVTVSS
VL: DIVMTQSPDSLAVSLGERATINCKSSESVDNYGISFLNWFQQKPGKAPKLLIYAASNQGSGVPDRFSGSGSGTDFTLTISSLQAEDVAVYFCQQSKEVPRTFGGGTKLEIK
notes: Human IgG4 (IGHG4*01 with S228P) and human CK*01; also called Ab 2A
B6: 13A1_Glv1 (graft) human IgG1 (antibody, V domains shown)
VH: B5 VH with S9A, L11V, T24A, Q65K, I70M, A76T, A79V, F95Y, T120L
VL: B4 VL with L15P, S22T, F40Y, S64A, N78T, H80N, L82V, E85D, A87T, A89N
notes: also called LCR13A1_GLv1; grafted human IgG1 13A1
B7: LCR13A1_VH_GLv3_LCR13A1_VK_GLv1_03 (LCR13A1-2C) IgG4(S228P) (antibody, V domains shown)
VH: B5 VH
VL: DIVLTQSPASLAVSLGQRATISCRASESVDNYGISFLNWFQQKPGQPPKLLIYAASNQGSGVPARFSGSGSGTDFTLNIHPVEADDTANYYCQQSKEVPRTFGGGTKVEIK
notes: Human IgG4 (IGHG4*01 with S228P) and human CK*01; also called Ab 2C
B8: LCR13A1_scFv (soluble scFv of murine 13A1) (scFv)
scFv: DIVLTQSPASLAVSLGQRATISCRASESVDNYGISFLNWFQQKPGQPPKLLIYAASNQGSGVPARFSGSGSGTDFSLNIHPMEEDDTGMYFCQQSKEVPRTFGGGTKLEIKRTVAARQEGGSGEGGSGESNAAAEVQLQQSGTVLARPGASVKMSCKTSGYTFTNYWMHWVRQRPGQGLEWIGTIYPGNSDTNYNQKFKDKAKLTAVTSATTAYMELSSLTNEDSAVYFCTREDSRSLYYNGWDYFDYWGQGTLVTVSSASTKAS
notes: Orientation VL-linker-VH; expressed in E. coli from pCHV101; also called LCR13A1 soluble scFv
B9: LCR13A1 Phage (murine 13A1 scFv fused to pIII on filamentous phage) (scFv)
scFv: B8 scFv
notes: not shown: pIII coat protein of filamentous bacteriophage (fusion partner from phagemid pCHV101)
B10: 13A1 mouse parental hybrid stabilized Fab (mu13A1) (Fab, V domains shown)
VH: EVQLQQSGTVLARPGASVKMSCKTSGYTFTNYWMHWVRQRPGQGLEWIGTIYPGNSDTNYNQKFKDKAKLTAVTSATTAYMELSSLTNEDSAVYFCTREDSRSLYYNGWDYFDYWGQGTTLTVSS
VL: not shown
notes: also called parental mouse Fab [chimeric, mVHhCH1/mVKhCK]; LCR13A1_VK(murine) + LCR13A1_VH(murine)
B11: 13A1_GLv1_scFv (CDR-grafted scFv, IGKV7-3*01/IGHV1-46*01) (scFv)
scFv: DIVLTQSPASLAVSPGQRATITCRASESVDNYGISFLNWYQQKPGQPPKLLIYAASNQGSGVPARFSGSGSGTDFTLTINPVEADDTANYYCQQSKEVPRTFGGGTKLEIKRTVAARQEGGSGEGGSGESNAAAQVQLVQSGAEVKKPGASVKVSCKASGYTFTNYWMHWVRQAPGQGLEWIGTIYPGNSDTNYNQKFKGRVTMTRDTSTSTVYMELSSLRSEDTAVYYCTREDSRSLYYNGWDYFDYWGQGTLVTVSSASTKAS
notes: Orientation VK-linker-VH; expressed in E. coli from pCHV101; also called LCR13A1_Glv1 scFv

How the values were obtained:
human recombinant TGF-b1 [1] = molecular target: T1, human recombinant TGF-b1 (human, UniProt P01137 279-390); test: competition ELISA on hTGF-β1-coated plate; competitor biotinylated murine 13A1
T1 construct: also called TGF-β1; hTGF-β1
T1 sequence (P01137 279-390 limits assumed): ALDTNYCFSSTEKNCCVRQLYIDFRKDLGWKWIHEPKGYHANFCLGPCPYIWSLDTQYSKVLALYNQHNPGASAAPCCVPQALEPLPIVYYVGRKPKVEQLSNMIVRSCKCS
Experimental: Nunc Maxisorb ELISA plates were coated overnight at 8° C. with 0.5 μg/ml hTGF-β1 (Peter Sun, NIH) or hTGF-β3 (Shenandoah Biotech) at 0.5 μg/ml in 40 mM glycine buffer pH 9. Plates were washed and blocked with 10% FCS for 1 h at 37° C. In a separate low binding Greiner Bio-One ELISA plate, various concentrations of competing Abs were mixed with a constant concentration of biotinylated parental 13A1 or 1901 at 200 ng/ml in PBS+BSA (10 mg/ml) and then transferred onto the TGF-β-coated Nunc Maxisorb ELISA plate. After incubation for 2 h at 37° C. plates were washed, Avidine-HRP added and incubated for 1 h at 37° C. Plates washed again, TMB substrate was added and bound biotinylated antibody was quantitated by measuring color development in an ELISA reader at a wave length of 450 nm.
The potency of the humanized LCR13A1 IgG4 antibody variants to compete with the parental murine antibody for binding to TGFb1 was assessed by ELISA. The six IgG4 variants LCR13A1_VH_GLv3_LCR13A1_VK_GLv3 (LCR13A1-2A), LCR13A1_VH_GLv1_03_LCR13A1_VK_GLv3 (LCR13A1-2B), LCR13A1_VH_GLv3_LCR13A1_VK_GLv1_03 (LCR13A1-2C), LCR13A1_VH_GLv1_03_LCR13A1_VK_GLv1_03 (LCR13A1-2D), LCR13A1_VH_GLv1_03_LCR13A1_VK_GLv1_04 (LCR13A1-2E) and LCR13A1_VH_GLv1_03_LCR13A1_VK_GLv1_05 (LCR13A1-2F) competed with the parental murine 13A1 antibody for binding to TGFb1 in a dose-dependent manner (FIG. 17).

human recombinant TGF-b1 [2] = molecular target: T1, human recombinant TGF-b1; test: TGFb specificity ELISA, HEK293-6E supernatant
human recombinant TGF-b1 [3] = molecular target: T1, human recombinant TGF-b1; test: ELISA, scFv culture on plate-coated TGF-b1, anti-cmyc detection
human recombinant TGF-b1 [4] = molecular target: T1, human recombinant TGF-b1; test: phage ELISA on plate-coated TGF-b1, anti-fd detection
Experimental: (§1) To perform the ELISA a 96-well maxisorp Nunc-immunoplate (Thermo Scientific, cat. #2022-10) was coated with 50 μl/well of human recombinant TGF-b1 (Acrobiosystems, cat. #TG1-H4212), TGF-b2 (R&D Systems, cat. #302-B2-010) and human recombinant TGF-b3 (Shenandoah Biotechnology, cat. #100-109) at 500 ng/ml in PBS at 4° C. overnight. Wells were blocked by the direct addition of 230 μl of block solution (5% skimmed milk/0.05% Tween20 in PBS) without first washing the plate. Blocking was carried out for 45 min with gentle agitation. Concurrently, the bacterial cultures containing the expressed scFv and the rescued phage were blocked by the direct addition of 120 μl of block solution. The blocked maxisorp plate was washed 3× with PBST (PBS+0.1% Tween20) before applying 150 μl of blocked scFv or phage culture to the wells. Incubation was performed for 1 h at room temperature with gentle agitation before washing of the wells with 4×PBST.
For the phage ELISA, 100 μl of primary rabbit anti-fd bacteriophage Ab (Sigma, cat. #B7786) diluted 1/1000 in PBS+1% BSA was added to wells followed by a 1 h incubation at room temperature with gentle agitation. The plate was washed 4× with PBST before the addition of 100 μl of secondary mouse anti-rabbit IgG (Y-chain specific) HRP conjugate (Sigma, cat. #A1949) diluted 1/15000 in PBS+1% BSA. […]

human recombinant TGF-b1 [5] = molecular target: T1, human recombinant TGF-b1; test: SPR (Biacore T200), 10 nM Fab over amine-coupled TGFb1 (492 RUs); reference of the ranking
Experimental: FIG. 27 provides Biacore analysis of the new mutant variant antibodies and compares the new mutants versus parent variant 13A1-2F and versus mu13A1. Selected variants have different monovalent (huIgG1 stabilized Fab format). Biacore binding kinetics, range from lower to higher than the parental mouse 13A1 (mu13A1, hybrid with mouse VK/VH and huCK/huCH1). The data presented is ka, kd and apparent KD. TGFb1 (chip): 492 Rus, Fabs: 10 nM, Flow rate: 30 ul/min, Contact time: 510s, Diss. Time: 600s. Quality: Chi(2)<=1% Rmax and U score <=5. Data is presented for mutant variant antibodies 13A1_AF, 13A1_AG, 13A1_AH, 13A1_BF, 13A1_BG, 13A1_BH, 13A1_CF, 13A1_CG, 13A1_CH, 13A1_DF, 13A1_DG, 13A1_DH, 13A1_EF, 13A1_EG and 13A1_EH.
SPR binding analysis of Fabs: Experiments were performed using the Biacore T200 equipped with the Series S sensor chip CMS (GE Healthcare, cat. #BR-1005-30). The instrument temperature was set at 25° C. for all steps in the analysis while the compartment temperature was set at 10° C. All the assays were performed using the running buffer HBS-EP+ 1×. Recombinant TGF-β1 (Biocat, cat. #TG1-H4212-50 ug-AC) was immobilized with the standard amine-coupling chemistry using a solution of the ligand at 1 ug/mL in acetate, pH 4.5. Recombinant TGF-β1 was injected for several minutes to achieve a target density of 492 RUs. […]

human recombinant TGF-b1 [6] = molecular target: T1, human recombinant TGF-b1; test: ELISA, soluble scFv on plate-coated TGFb isoforms
Experimental: as §1
For the scFv ELISA, 100 μl of primary mouse 9E10 anti-cmyc Ab diluted 1/1000 in PBS+1% BSA was added to wells, followed by a 1 h incubation at room temperature with gentle agitation. […] The ELISA was developed by the addition of 100 μl/well of TMB substrate (ThermoFischer Scientific, cat. #34021), stabilized with 50 μl/well of stop solution (2N sulfuric acid) and absorbance signals read at 450 nm and 620 nm.

Row | Binder | binding result (human recombinant TGF-b1 [1]) | other results
1 | B1 | binds | 
2 | B2 | binds | 
3 | B3 | binds | 
4 | B4 | binds | 
5 | B5 | binds | 
6 | B6 |  | binding result (human recombinant TGF-b1 [2]): binds
7 | B7 | binds | 
8 | B8 |  | binding result (human recombinant TGF-b1 [3]): binds
9 | B9 |  | binding result (human recombinant TGF-b1 [4]): binds
10 | B10 |  | binding result (human recombinant TGF-b1 [5]): binds
11 | B11 |  | binding result (human recombinant TGF-b1 [6]): binds
